# Measurements: patent US12356911B2, “Group of UDP-glycosyltransferase for catalyzing carbohydrate chain elongation and application thereof” (GSYNBIOT (SHANGHAI) CO., LTD, priority 2017, dated 2025)
# Numbering of substitutions follows the chain as printed.
# B1: GT29-32: Ginseng UDP-glycosyltransferase, 442 amino acids, SEQ ID NO: 4 (protein)
# chain: MDNQEGRISIALLPFLAHGHISPFFELAKQLAKRNCNVFLCSTPINLSSIKNKDSSASIKLVELHLPSSPDLPPHYHTTNGLPSHLMVPLRNAFETAAPTFSEILKTLNPDLLIYDFNPSWAPEIASSHNIPAVYFLTSAAATSSMGLHAFKNSGEKYPFPDFYDNSNITPEPPSADKMKLFHDFVACFKRSCDIILIKSFRELEGKYIDFLSTLSKKTLVPVGPLVQDPMGHDEDPKTGHLINWLDKRAESTVVFVCFGSEYFPSNEELEELAIGLEISMVSFILAVRFPEGEKKGILPEGFVQRVGDRGLVVEGWAPQARILGHSSTGGFVSHCGWSSIMESVKFGVPVIAMARHLDQPLNAKLAAEVGVGMEVMRDENGKYKREAIAEVIRKVVMEKNGEVMRRKARELSEKMKEIGEQLIDRAVEELVQICKKKKDEQ
# modifications: misc_feature - GT29-32; Panax ginseng
# B2: GT29-25: Ginseng UDP-glycosyltransferase, 446 amino acids, SEQ ID NO: 30 (protein)
# chain: MDNQKGRISIVMLPFLAHGHISPFFELAKHLSKRNCNIFLCSTPINLSSIKNRISDKDSSASIKLVELHLPSSPDLPPHYHTTNGLPSHLMVPLRNAFETAAPTFSEILKTLNPDLLIYDFNPSWAPEIASSHNIPAVCFIIGGAASFSMSLHSFKNPGEKYPFLDFDDNSNITPEPPSADNMKLLLDFMTCFERSCDIILIKSFRELEGKYFDFYSTLSDKTLVPVGPLVQDPMGHNEDPKTEQFINWLDKRAESTVVFVCFGSEYFLSNEELEEVAIGLEISMVNFIWAVRLIEGEKKGVLPEGFVQRVGDRGLVVEGWAPQARILGHSSTGGFVSHCGWSSITESMKFGVPVIAMARHFDQPLNAKLAAEVGVGTEVVRDENGKYKREDIAGVIRKVVVEKSGEVIRRKARELSEKMKEIGEQLIDRAVEELVQICKKKKDEQ
# modifications: misc_feature - GT29-25; Panax ginseng
# B3: GT29-24: Ginseng UDP-glycosyltransferase, 446 amino acids, SEQ ID NO: 28 (protein)
# chain: B2 chain with T378M, D392G, G395E, I409M, I423K, Q426E, L427E, E445A
# modifications: misc_feature - GT29-24; Panax ginseng
# Key:
# Format in all cases: biochemical
# [1] = In vitro transglycosylation at C-20, CK as glycosyl acceptor, UDP-arabinose as donor; settings: crude enzyme (E. coli lysate supernatant); TLC, FIG. 17
# [2] = In vitro transglycosylation at C-20, Rd as glycosyl acceptor, UDP-glucose as donor; settings: crude enzyme (E. coli lysate supernatant); TLC/HPLC, FIG. 2, 3, 11
# Description: (§1) Cell lysate of recombinant E. coli with empty vector pET28a was used as a control.
# [3] = In vitro transglycosylation at C-20, CK as glycosyl acceptor, UDP-glucose as donor; settings: crude enzyme (E. coli lysate supernatant); TLC/HPLC, FIG. 2, 3, 12, 16
# Description: as §1
# As shown in FIG. 16: Protopanaxadiol Ginsenoside CK is used as a glycosyl acceptor, and UDP-glucose is used as a glycosyl donor.
# [4] = In vitro transglycosylation at C-20, F1 as glycosyl acceptor, UDP-glucose as donor; settings: crude enzyme (E. coli lysate supernatant); TLC and HPLC, FIG. 5, FIG. 6
# [5] = In vitro transglycosylation at C-20, Rd as glycosyl acceptor, UDP-xylose as donor; settings: crude enzyme (E. coli lysate supernatant); TLC and HPLC, FIG. 2, FIG. 4
# [6] = In vitro transglycosylation at C-6, Rg1 as glycosyl acceptor, UDP-xylose as donor; settings: crude enzyme (E. coli lysate supernatant); TLC and HPLC, FIG. 7-9
# [7] = In vitro transglycosylation at C-3, Rh2 as glycosyl acceptor, UDP-glucose as donor; settings: crude enzyme (E. coli lysate supernatant); TLC, FIG. 13, FIG. 15
# Description: as §1
# [8] = In vitro transglycosylation at C-3, F2 as glycosyl acceptor, UDP-glucose as donor; settings: crude enzyme (E. coli lysate supernatant)
Molecule,product formation from CK and UDP-arabinose (Ginsenoside F3) [1],product formation from Rd and UDP-glucose (Rb1) [2],product formation from CK and UDP-glucose (Gypenoside LXXV) [3],product formation from F1 and UDP-glucose [4],product formation from Rd and UDP-xylose (one product with the mobility of Rb3) [5],product formation from Rg1 and UDP-xylose (notoginsenoside R1) [6],product formation from Rh2 and UDP-glucose (Rg3) [7],product formation from F2 and UDP-glucose (Rd) [8]
B1,can catalyze the first glycosyl of C-20 of CK to extend an arabinosyl to generate Ginsenoside F3,can catalyze the formation of Rb1,can catalyze the formation of a new product,can catalyze the formation of a new product,can catalyze Rd to produce three products,,,
B2,,,,,,can catalyze the formation of Notoginsenoside RI,catalyze the production of ginsenoside Rg3,can further catalyze the extension of a glucosyl at the C-3 glycosyl of F2 to produce ginsenoside Rd
B3,,,,,,can catalyze the formation of Notoginsenoside RI,catalyze the production of ginsenoside Rg3,can further catalyze the extension of a glucosyl at the C-3 glycosyl of F2 to produce ginsenoside Rd
